The series deals with the molecule itself. The series can be described thus: crystal structure; hanging drop, 22 °C; 5 mg/ml PlsX, 1 mM 1-oxohexadecylphosphoramidic acid, 0.08 M Tris-HCl pH 8.0, 0.16 M Li2SO4, 21% PEG 4000, 0.012 mM CYMAL 7, 5% t-butanol; 2.30 Å; two subunits in the asymmetric unit.

B1: Bacillus subtilis phosphate acyltransferase PlsX (enzyme, UniProt P71018 1-333, looked up)
chain: MRIAVDAMGGDHAPKAVIDGVIKGIEAFDDLHITLVGDKTTIESHLTTTSDRITVLHADEVIEPTDEPVRAVRRKKNSSMVLMAQEVAENRADACISAGNTGALMTAGLFIVGRIKGIDRPALAPTLPTVSGDGFLLLDVGANVDAKPEHLVQYAIMGSVYSQQVRGVTSPRVGLLNVGTEDKKGNELTKQTFQILKETANINFIGNVEARDLLDDVADVVVTDGFTGNVTLKTLEGSALSIFKMMRDVMTSTLTSKLAAAVLKPKLKEMKMKMEYSNYGGASLFGLKAPVIKAHGSSDSNAVFHAIRQAREMVSQNVAALIQEEVKEEKTDE
notes: Phosphate acyltransferase PlsX, Bacillus subtilis; plsX gene amplified from genomic DNA and inserted into pET28a between NcoI and XhoI; Crystallised with the product analog 1-oxohexadecylphosphoramidic acid (palmitoyl phosphoramide), which was not found in the solved structure; also called B. subtilis PlsX; recombinant PlsX; source: E. coli C43 (DE3), purified (HisTrap HP, gel filtration on …)
With B1, the “stoichiometry N” value turned out to be 2.

These data come from paper PMC6702220 (Communications Biology, 2019).
